Experimental data: article PMC8628261 (Cell reports, 2021)

Molecular target: the molecule itself
Assay: AUC

Protein	Kd [nM]	stoichiometry N
mouse Kirrel3 ectodomain, wild type (domain or fragment, UniProt Q8BR86 22-535, looked up) LQKRGCCLVLGYMAKDKFRRMNEGQVYSFSQQPQDQVVVSGQPVTLLCAIPEYDGFVLWIKDGLALGVGRDLSSYPQYLVVGNHLSGEHHLKILRAELQDDAVYECQAIQAAIRSRPARLTVLVPPDDPIILGGPVISLRAGDPLNLTCHADNAKPAASIIWLRKGEVINGATYSKTLLRDGKRESIVSTLFISPGDVENGQSIVCRATNKAIPGGKETSVTIDIQHPPLVNLSVEPQPVLEDNIVTFHCSAKANPAVTQYRWAKRGHIIKEASGELYRTTVDYTYFSEPVSCEVTNALGSTNLSRTVDVYFGPRMTSEPQSLLVDLGSDAVFSCAWIGNPSLTIVWMKRGSGVVLSNEKTLTLKSVRQEDAGKYVCRAVVPRVGAGEREVTLTVNGPPIISSTQTQHALHGEKGQIKCFIRSTPPPDRIAWSWKENVLESGTSGRYTVETVNTEEGVISTLTISNIVRADFQTIYNCTAWNSFGSDTEIIRLKEQGSEMKSGAGLEAESVPMA	210	2
mouse Kirrel2 ectodomain, wild type (domain or fragment, UniProt Q7TSU7 20-507, looked up) SPHFLQQPEDMVVLLGEEARLPCALGAYRGLVQWTKDGLALGGERDLPGWSRYWISGNSASGQHDLHIKPVELEDEASYECQASQAGLRSRPAQLHVMVPPEAPQVLGGPSVSLVAGVPGNLTCRSRGDSRPAPELLWFRDGIRLDGSSFHQTTLKDKATGTVENTLFLTPSSHDDGATLICRARSQALPTGRDTAVTLSLQYPPMVTLSAEPQTVQEGEKVTFLCQATAQPPVTGYRWAKGGSPVLGARGPRLEVVADATFLTEPVSCEVSNAVGSANRSTALEVLYGPILQAKPKSVSVDVGKDASFSCVWRGNPLPRITWTRMGGSQVLSSGPTLRLPSVALEDAGDYVCRAEPRRTGLGGGKAQARLTVNAPPVVTALQPAPAFLRGPARLQCVVFASPAPDSVVWSWDEGFLEAGSLGRFLVEAFPAPEVEGGQGPGLISVLHISGTQESDFTTGFNCSARNRLGEGRVQIHLGRRDLLPTVR	900	2
